To fix the notation:
B1: LINE1-full (parent)
chain: UACGUAGGUGGUUUUCCCCUGAUAGUGCUAAGGGGGCCUGGAAGUUUGGACUGGGCAGAGCUCAACACAGCGUGGCAAAGUGGCUGUGGCUAGACUGCCUCUCUGGAUUCCUCGUCACUCAGCAGGGCAUCUCUGAGAGAAAUGCC

This series covers variants of B1. The experiment in a line: self-cleavage, relative activity (ratio to wild type); higher = more cleavage; in vitro, sequencing; the parent is a self-cleaving ribozyme.
Consider U104A U143C, for which the self-cleavage is 1.13.

Regarding C101A A141G, the self-cleavage turned out to be 1.64.

In the case of U109A C131A, the self-cleavage was 1.59.

Turning to U102C G105A, the self-cleavage is 2.14.

In the case of C103U U134C, the self-cleavage amounted to 1.48.

Regarding U104C U115C, the self-cleavage was determined as 1.92.

On to A107G C116A, for which the self-cleavage worked out at 1.71.

As for U102A U119C, the self-cleavage is 2.01.

On to A107U A117G, for which the self-cleavage came to 1.34.

As for U104A A140U, the self-cleavage is 1.03.

Regarding U108C U109C, the self-cleavage amounted to 1.51.

For U104A U119A, the self-cleavage turned out to be 1.23.

With U109C C111U, the self-cleavage came out at 1.31.

As to G106A U132A, the self-cleavage was 0.61.

Consider G106A U132G, for which the self-cleavage is 1.67.

For U108C G127A, the self-cleavage was determined as 1.64.

U108A A124G: the self-cleavage came out at 1.55.

G105U A136G: the self-cleavage came to 1.47.

In the case of U104A A121U, the self-cleavage was found to be 1.11.

Regarding A107U U115C, the self-cleavage was 1.55.

For the variant A107C A136U, the self-cleavage is 1.2.

In the case of A107C A136G, the self-cleavage was found to be 1.73.

Take U104G U130C: the self-cleavage is 0.75.

Take A107G G135A: the self-cleavage amounted to 1.64.

For the variant C101A A129U, the self-cleavage came to 2.2.

Turning to C101A A129G, the self-cleavage stood at 0.

Take U108A U130A: the self-cleavage was found to be 0.38.

On to U102C C123U, for which the self-cleavage is 1.21.

Take U104C G105U: the self-cleavage is 1.66.

With C101A U132C, the self-cleavage is 1.39.

Take U104A A107U: the self-cleavage is 1.31.

Regarding U108C C123U, the self-cleavage is 2.22.

Take A107G G137U: the self-cleavage came to 2.3.

On to A107G A121U, for which the self-cleavage came out at 1.28.

With U109C G126A, the self-cleavage is 1.83.

As to G106A G127U, the self-cleavage stood at 1.49.

For the variant C103U U130C, the self-cleavage amounted to 0.84.

For the variant U102A A107G, the self-cleavage was found to be 1.06.

Take U102A A107U: the self-cleavage came to 1.66.

C103A U143C: the self-cleavage was found to be 1.1.

As for G105A, the self-cleavage was found to be 1.43.

G105C: the self-cleavage amounted to 1.59.

G105U: the self-cleavage is 1.37.

Take A107C A129U: the self-cleavage amounted to 2.42.

On to U104C U108C, for which the self-cleavage was 2.07.

For the variant U109C A121C, the self-cleavage was determined as 0.99.

For U109C A121G, the self-cleavage was found to be 1.58.

U102C U132C: the self-cleavage was 1.75.

For the variant G105A U130C, the self-cleavage stood at 0.96.

Consider U102C C145U, for which the self-cleavage is 1.93.

Take U104A C120U: the self-cleavage turned out to be 1.65.

Take U108C A141G: the self-cleavage amounted to 1.65.

As for U108G U130A, the self-cleavage is 0.77.

As to U104C C113U, the self-cleavage was 1.8.

With U104C C113A, the self-cleavage amounted to 2.01.

Take U102A A136G: the self-cleavage worked out at 1.78.

For the variant A107G U109C, the self-cleavage is 1.14.

As for C101U U102C, the self-cleavage came out at 1.49.

As for G105U U115A, the self-cleavage was 1.72.

For U102A A138G, the self-cleavage is 1.62.

Take U102A C116U: the self-cleavage was 0.97.

Consider U104C C120U, for which the self-cleavage was 1.45.

On to U108G G122C, for which the self-cleavage came out at 0.

Regarding U104A A141G, the self-cleavage was 1.43.

On to U104A A141C, for which the self-cleavage amounted to 0.47.

On to U104A C113U, for which the self-cleavage turned out to be 0.51.

Consider U104A C113A, for which the self-cleavage worked out at 0.91.

In the case of C103U A142C, the self-cleavage was 1.23.

Regarding U108C C110A, the self-cleavage came out at 1.49.

As for A107G U132A, the self-cleavage is 0.88.

Consider C101U U119C, for which the self-cleavage came out at 1.65.

As to U109C C123U, the self-cleavage was found to be 1.22.

Regarding U109A A124U, the self-cleavage is 1.61.

With U109A A141G, the self-cleavage came to 1.76.

On to U104C G144U, for which the self-cleavage was 2.06.

Consider G106U A117G, for which the self-cleavage worked out at 1.22.

As for A107G A140G, the self-cleavage was found to be 1.87.

For U104C G126U, the self-cleavage was found to be 1.59.

Take C101U A121G: the self-cleavage is 1.72.

Turning to G105U U143A, the self-cleavage was determined as 1.34.

For the variant U108C U115C, the self-cleavage turned out to be 1.86.

U109C C133U: the self-cleavage turned out to be 1.37.

In the case of G105A U108C, the self-cleavage stood at 1.56.

On to U104G U115A, for which the self-cleavage was 0.87.

On to C103A A117G, for which the self-cleavage was 1.49.

Regarding U104C A140U, the self-cleavage worked out at 1.25.

For the variant U104C A140G, the self-cleavage was determined as 1.67.

U108C A136G: the self-cleavage was 1.83.

On to U102C U130A, for which the self-cleavage worked out at 2.21.

Take U104C A124U: the self-cleavage was found to be 1.76.

With U109A U143C, the self-cleavage worked out at 1.8.

For the variant U109A U143A, the self-cleavage was 1.75.

For U102A A124U, the self-cleavage worked out at 1.46.

U102A A124C: the self-cleavage was 1.98.

For U108A A138G, the self-cleavage was determined as 1.79.

As for A107C U130C, the self-cleavage was determined as 0.

As for U108A U132G, the self-cleavage turned out to be 2.7.

Regarding U109C U115A, the self-cleavage amounted to 0.82.

Turning to G105U U132C, the self-cleavage was determined as 0.

As to U104C C133U, the self-cleavage was determined as 1.72.

G106U U130C: the self-cleavage was determined as 1.29.

Consider U102A U109A, for which the self-cleavage was found to be 1.03.

For U102A U109C, the self-cleavage worked out at 1.31.

Take U104C G122A: the self-cleavage stood at 1.54.

For A107G U143A, the self-cleavage was found to be 1.51.

As to C103U A121G, the self-cleavage came to 1.58.

As for U104C U132C, the self-cleavage came to 1.63.

Consider A107U A141G, for which the self-cleavage amounted to 1.52.

Take U108C A117C: the self-cleavage was 2.24.

In the case of U108C A117G, the self-cleavage came out at 1.62.

On to C101A A142G, for which the self-cleavage came out at 1.53.

In the case of A107U A136G, the self-cleavage is 1.92.

Take U104A C116U: the self-cleavage came to 0.9.

For the variant U109C A138G, the self-cleavage is 1.69.

For G105C U132C, the self-cleavage was found to be 1.53.

Consider A107U A129U, for which the self-cleavage came to 1.86.

For the variant A107U A129G, the self-cleavage was determined as 2.12.

For A107G A124G, the self-cleavage was found to be 0.96.

Turning to U104C A117G, the self-cleavage worked out at 1.23.

Turning to U109A U130C, the self-cleavage is 1.54.

For the variant A107C U143A, the self-cleavage is 1.79.

Take A107G C110A: the self-cleavage was 1.13.

For U104A C131U, the self-cleavage was determined as 1.55.

Take U108G U115C: the self-cleavage was 1.58.

As to U108A A129G, the self-cleavage stood at 0.99.

Consider C103U A140U, for which the self-cleavage amounted to 1.72.

In the case of A107U U109C, the self-cleavage is 1.58.

With A107U U109A, the self-cleavage was 1.98.

Take U109A A142G: the self-cleavage worked out at 1.39.

Take A107G C113U: the self-cleavage was 1.39.

As for A107G C113A, the self-cleavage turned out to be 1.94.

In the case of U102C A142C, the self-cleavage was 1.73.

As for U102C A142G, the self-cleavage worked out at 1.53.

In the case of U102C A142U, the self-cleavage amounted to 1.26.

With A107G G125U, the self-cleavage worked out at 1.96.

As for U108G A121U, the self-cleavage was determined as 1.86.

Regarding U104A U108A, the self-cleavage was 1.

Take U102C U134C: the self-cleavage is 1.55.

For the variant U102C U134A, the self-cleavage was determined as 1.59.

Regarding A107G C145U, the self-cleavage was 1.45.

In the case of U102C A124C, the self-cleavage turned out to be 2.04.

Turning to U102C A124U, the self-cleavage turned out to be 1.14.

Regarding U108C A140G, the self-cleavage came to 1.74.

Take G106U A136U: the self-cleavage was 0.83.

As for U102A C145U, the self-cleavage came to 1.04.

As to C101U U134C, the self-cleavage was 1.45.

With U102C U115A, the self-cleavage is 1.51.

On to U102C U115C, for which the self-cleavage amounted to 2.02.

Regarding G105U A117G, the self-cleavage was 1.74.

On to U104A U115A, for which the self-cleavage turned out to be 1.13.

On to U104A U115C, for which the self-cleavage stood at 1.42.

Turning to U100G G114A, the self-cleavage was determined as 1.77.

U109A A121G: the self-cleavage worked out at 1.82.

In the case of U102A A121G, the self-cleavage came to 1.64.

Regarding U104C A129C, the self-cleavage was 2.1.

On to A107C U115C, for which the self-cleavage was 1.38.

For the variant G106U A138G, the self-cleavage stood at 0.99.

In the case of U104C C146U, the self-cleavage came out at 2.3.

As to A107C A117U, the self-cleavage came out at 2.03.

Regarding U104C A142G, the self-cleavage stood at 1.81.

Turning to U108C C111A, the self-cleavage was determined as 1.76.

Turning to U102C U109C, the self-cleavage worked out at 1.38.

In the case of U102A U115A, the self-cleavage is 1.43.

Take U102C G126A: the self-cleavage is 1.65.

For the variant U102C G126U, the self-cleavage worked out at 1.59.

On to A107G A129G, for which the self-cleavage was 1.63.

Regarding U109C C113A, the self-cleavage came out at 0.99.
